Data: patent publication US6515118

Assays:
[1] = system: DFF-45, 45-kDa subunit of DNA Fragmentation Factor (DFF), purified from HeLa cell S-100
[2] = target: T1, DFF-40, 40-kDa subunit of DNA Fragmentation Factor (DFF), purified from HeLa cell S-100 (UniProt O76075)
T1 sequence: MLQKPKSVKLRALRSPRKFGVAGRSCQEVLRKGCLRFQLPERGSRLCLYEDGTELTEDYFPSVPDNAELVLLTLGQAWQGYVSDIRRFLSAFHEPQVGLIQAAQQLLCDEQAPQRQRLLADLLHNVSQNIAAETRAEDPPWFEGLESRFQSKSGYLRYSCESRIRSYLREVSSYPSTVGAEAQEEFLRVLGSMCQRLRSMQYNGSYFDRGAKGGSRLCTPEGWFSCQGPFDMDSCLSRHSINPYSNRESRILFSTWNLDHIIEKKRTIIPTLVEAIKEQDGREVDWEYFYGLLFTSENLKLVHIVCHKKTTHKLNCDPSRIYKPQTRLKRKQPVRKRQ

[3] = system: lamin B1 in co-incubated nuclei
[4] = system: recombinant DFF-45 fusion protein with a six-histidine tag at the NH2-terminus
[5] = system: poly(ADP-ribose) polymerase (PARP) in co-incubated nuclei
[6] = system: Ac-Asp-Glu-Ala-Asp-aldehyde (Ac-DEAD-CHO)

Question: Which “cleavage of biotinylated DFF (SDS-PAGE, streptavidin-peroxidase chemiluminescence)” value [1] does the source give for active recombinant caspase-3 here?
Answer: Incubation with caspase-3 resulted in the cleavage of the 45-kDa subunit into fragments of molecular masses of 30 kDa and 11 kDa

Question: What about the “cleavage of biotinylated DFF (SDS-PAGE, streptavidin-peroxidase chemiluminescence)” value [2] of the same substance?
Answer: the 40-kDa subunit remained intact

Question: And the “time course of lamin B1 cleavage in nuclei (immunoblot)” value [3]?
Answer: the rate of Lamin B1 cleavage by caspase-3 remained the same with or without DFF

Question: And the “cleavage of the purified fusion protein (SDS-PAGE)” value [4]?
Answer: Incubation of this fusion protein with caspase-3 resulted in its cleavage into three fragments of 30 kDa, 18 kDa and 11 kDa at the early time point

Question: And the “rate of PARP cleavage in nuclei (immunoblot)” value [5]?
Answer: The same conclusion was obtained when the rate of cleavage of PARP was measured

Question: What about the “cleavage of PARP and lamin B1 in co-incubated nuclei (immunoblot)” value [6] of the same substance?
Answer: Ac-DEAD SEQ ID NO:6-CHO still blocked the cleavage of both PARP and lamin B1 in the co-incubated nuclei
